Experimental findings from patent publication US20070196374A1 (published 2007) are described below.

Changes are numbered by the printed parent chain. Names may count otherwise.

Test [1] deals with T1, VEGF (human, UniProt P15692-4 27-191, limits assumed).
T1 construct: also called vascular endothelial growth factor; biotinylated VEGF
The test can be described thus: BIAcore-2000 SPR, wt = Y0192. As for the experimental part: (§1) The VEGF-binding affinities of Fab fragments were calculated from association and dissociation rate constants measured using a BIAcore-2000™ surface plasmon resonance system (BIAcore, Inc., Piscataway, N.J.). A biosensor chip was activated for covalent coupling of VEGF using N-ethyl-N′-(3-dimethylaminopropyl)-carbodiimide hydrochloride (EDC) and N-hydroxysuccinimide (NHS) according to the supplier's (BIAcore, Inc., Piscataway, N.J.) instructions. VEGF was buffered exchanged into 20 mM sodium acetate, pH 4.8 and diluted toapproximately 50 μg/mL. An aliquot (35 μL) was injected at a flow rate of 2 μL/min to achieve approximately 700-1400 response units (RU) of coupled protein. Finally, 1 M ethanolamine was injected as a blocking agent.
(§2) For kinetics measurements, two-fold serial dilutions of Fab were injected in PBS/TWEEN™ buffer (0.05% TWEEN 20™ in phosphate buffered saline) at 25° C. at a flow rate of 10 μL/min. […] Equilibrium dissociation constants, Kd's from surface plasmon resonance (SPR) measurements were calculated as koff/kon.
On the technique in general: Surface plasmon resonance follows binding to a sensor surface in real time, without labels.

In test [2] the target is T1, VEGF. Put plainly: BIAcore-2000 SPR. On the procedure: as §1, §2
The target in test [3] is rhVEGF165 (human, UniProt P15692 27-191). The test can be described thus: cell-based or functional assay.
The target of test [4] is T1, VEGF. Put plainly: competition ELISA: Fab + biotinylated VEGF, then KDR-IgG plate. On the procedure: Standards (6.9-440 ng/ml chimeric F(ab)) and two-fold serial of samples were incubated with 2 nM biotinylated VEGF for 1 h in tubes. The solutions from the tubes were then transferred to the ELISA plates and incubated for 1 h. […] Titration curves were fit with a four-parameter nonlinear regression curve-fitting program (KaleidaGraph, Synergy Software, Reading Pa.). […] Assays for full-length IgG were the same as for the F(ab)s except that the assay buffer contained 10% human serum.
(In general: In an ELISA, binding on a coated surface is turned into a signal by an enzyme label.)

For test [5], the target named is T2, VEGF121 (human, UniProt P15692 27-147).
T2 construct: mature; also called Purified VEGF121
T2 sequence (looked up): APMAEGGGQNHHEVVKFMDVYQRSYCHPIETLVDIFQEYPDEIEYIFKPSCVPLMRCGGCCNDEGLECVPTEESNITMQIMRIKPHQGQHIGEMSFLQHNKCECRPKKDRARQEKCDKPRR
Put plainly: BIAcore SPR, VEGF121 on chip. On the procedure:
(§3) VEGF₁₂₁ was covalently immobilized on the biosensor chip via primary amino groups. Binding of humanized A4.6.1 Fab variants was measured by flowing solutions of Fab in PBS/0.05% TWEEN 20™ over the chip at a flow rate of 20 μL/min. Following each binding measurement, residual Fab was stripped from the immobilized ligand by washing with 5 μL of 50 mM aqueous HCl at 3 μL/min. Binding profiles were analyzed by nonlinear regression using a simple monovalent binding model (BIAevaluation software v2.0; Pharmacia).

The target of test [6] is T2, VEGF121. Put plainly: BIAcore SPR, VEGF121 on chip, Fab in flow. As for the experimental part:
as §3

B1: Y0238-1 (Fab, V domains shown)
VH: EVQLVESGGGLVQPGGSLRLSCAASGYTFTNYGINWVRQAPGKGLEWVGWINTYTGEPTYAADFKRRFTFSLDTSKSTAYLQMNSLRAEDTAVYYCAKYPYYRGTSHWYFDVWGQGTL
VL: DIQLTQSPSSLSASVGDRVTITCRANEQLSNYLNWYQQKPGKAPKVLIYFTSSLHSGVPSRFSGSGSGTDFTLTISSLQPEDFATYYCQQYSTVPWTFGQGTKVEIKR
notes: Clone of library YC-81 on the pY0192 template; Soluble Fab
Turning to B1, the “Kd (wt)/Kd” value in test [1] came to 7.3 ratio.

B2: Y0238-10 (Fab, V domains shown)
VH: B1 VH with G104N
VL: B1 VL
notes: as for B1
On to B2, for which the “Kd (wt)/Kd” value in test [1] came out at 4.8 ratio.

B3: Y0238-5 (Fab, V domains shown)
VH: B1 VH with R103I, G104A, T105K
VL: B1 VL
notes: as for B1
As to B3, the “Kd (wt)/Kd” value in test [1] was determined as 3.2 ratio.

B4: Y0244-4 (Fab, V domains shown)
VH: B1 VH with L72I, T74K, Y101H, R103Y, T105S
VL: B1 VL
notes: Soluble Fab
Consider B4, for which the “Kd (wt)/Kd” value in test [1] is 0.9 ratio.

B5: Y0244-1 (Fab, V domains shown)
VH: B1 VH with L72V, T74V, Y101H, R103Y, T105S
VL: B1 VL
notes: Soluble Fab
Consider B5, for which the “Kd (wt)/Kd” value in test [1] was found to be 3.6 ratio.

B6: Y0243-1 (Fab, V domains shown)
VH: B1 VH with T28D, N31H, I34M, Y101H, R103Y, T105S
VL: B1 VL
notes: Soluble Fab from E. coli 34B8
In the case of B6, the “Kd (wt)/Kd” value in test [1] turned out to be 4.1 ratio.

B7: Y0238-3 (Fab, V domains shown)
VH: B1 VH with R103Y
VL: B1 VL
notes: Soluble Fab from E. coli 34B8
What is called Kd is the concentration at which binding is half-saturated. B7: in test [1], the “Kd (wt)/Kd” value is ≥ 14 ratio. In test [2], this molecule came in with a Kd of 0.15 nM.

B8: Y0313-1 (Fab, V domains shown)
VH: B1 VH with T28D, N31H, I34M, R103Y
VL: B1 VL
notes: Y0243-1 with VH3 H101Y and S105T; soluble Fab
As for B8, the “potency in the HuVEC assay relative to the wild-type Fab (Y0192)” value in test [3] is > 30 fold. Moreover, the “Kd (wt)/Kd” value in test [1] was ≥ 20 ratio.

B9: Y0313-3 (Fab, V domains shown)
VH: B1 VH with R103Y, T105S
VL: B1 VL
notes: Reversion mutant of Y0238-3 (VH3 T105S); soluble Fab
In the case of B9, the “Kd (wt)/Kd” value in test [1] is 4.5 ratio.

B10: Y0238-7 (Fab, V domains shown)
VH: B1 VH with R103W
VL: B1 VL
notes: as for B1
Turning to B10, the “Kd (wt)/Kd” value in test [1] was ≥ 7.3 ratio.

B11: chimeric F(ab) (Fab, V domains shown)
VH: EIQLVQSGPELKQPGETVRISCKASGYTFTNYGMNWVKQAPGKGLKWMGWINTYTGEPTYAADFKRRFTFSLETSASTAYLQISNLKNDDTATYFCAKYPHYYGSSHWYFDVWGAGTTVTVSS
VL: DIQMTQTTSSLSASLGDRVIISCSASQDISNYLNWYQQKPDGTVKVLIYFTSSLHSGVPSRFSGSGSGTDYSLTISNLEPEDIATYYCQQYSTVPWTFGGGTKLEIKR
notes: Murine A4.6.1 VH fused to human CH1 at SerH113 and murine VL fused to human CL at LysL107; also called chim-F(ab); A4.6.1 chimera
Broadly, the EC50 is the concentration giving half of the maximal effect. B11: in test [4], the EC50 came to 49 µg/mL.

B12: F(ab)-1 (Fab, V domains shown)
VH: EVQLVESGGGLVQPGGSLRLSCAASGYTFTNYGMNWVRQAPGKGLEWVGWINTYTGEPTYAADFKRRFTISRDNSKNTLYLQMNSLRAEDTAVYYCARYPHYYGSSHWYFDVWGQGTLVTVSS
VL: DIQMTQSPSSLSASVGDRVTITCSASQDISNYLNWYQQKPGKAPKLLIYFTSSLHSGVPSRFSGSGSGTDFTLTISSLQPEDFATYYCQQYSTVPWTFGQGTKVEIK
Consider B12, for which the fold reduction of binding affinity against chimeric F(ab) in test [4] is > 1000 fold.

B13: F(ab)-8 (Fab, V domains shown)
VH: B12 VH with I70F, R72L, N74T, L79A
VL: B12 VL with L46V
notes: F(ab)-5 with IleH69Phe and LeuH78Ala; Human CH1 and CL
B13: in test [4], the “fold improvement of binding against F(ab)-5” value (shortened to “fold improvement of binding”) turned out to be 8 fold.

B14: hu2.10 (Fab, V domains shown)
VH: B12 VH with V37I, R72L, N74T, K76A, N77S, L79V, R98K
VL: B12 VL with F71Y
notes: Phage-selected consensus clone, soluble Fab with human constant domains; also called consensus clone hu2.10
For the molecule B14, the “fold tighter KD against hu2.0” value in test [5] was ≥ 125 fold. Besides, in test [6], the “KD(A4.6.1)/KD(mut) as headed (values run as KD(mut)/KD(A4.6.1))” value is 35 ratio.

B15: F(ab)-6 (Fab, V domains shown)
VH: B12 VH with R72L, N74T, L79A
VL: B12 VL with L46V
notes: F(ab)-5 with LeuH78Ala; Human CH1 and CL
B15: the “fold improvement of binding” value in test [4] came out at 2 fold.

B16: F(ab)-5 (Fab, V domains shown)
VH: B12 VH with R72L, N74T
VL: B12 VL with L46V
notes: Human CH1 and CL
With B16, in test [4], the “fold increase of binding affinity against F(ab)-4” value is ~4 fold.

B17: hu2.10V (Fab, V domains shown)
VH: B12 VH with V37I, R72L, N74T, K76A, N77S, L79V, R98K
VL: B12 VL with L46V, F71Y
notes: hu2.10 with the Leu->Val change at VL 46; Fab
Take B17: the “fold improvement in KD against hu2.10” value in test [5] amounted to 6 fold. Further, in test [6], the “KD(A4.6.1)/KD(mut) as headed (values run as KD(mut)/KD(A4.6.1))” value was found to be 5.8 ratio.

B18: F(ab)-9 (Fab, V domains shown)
VH: B12 VH with G49A, I70F, R72L, N74T, L79A
VL: B12 VL with L46V
notes: F(ab)-8 with GlyH49Ala; Human CH1 and CL
As for B18, the “fold reduction of binding against F(ab)-8” value in test [4] came out at 15 fold.

B19: F(ab)-7 (Fab, V domains shown)
VH: B12 VH with I70F, R72L, N74T
VL: B12 VL with L46V
notes: F(ab)-5 with IleH69Phe; Human CH1 and CL
On to B19, for which the “fold improvement of binding” value in test [4] was 2 fold.
